The values below come from patent US9340596B2, “Fusion protein comprising tumor necrosis factor related apoptosis inducing ligand and integrin ligand and use thereof” (NANJING UNIVERSITY, priority 2007, dated 2016).

The test system of assay [1] is human foreskin microvascular endothelial cells. Nature of the assay: Cell adhesion assay of human foreskin microvascular endothelial cells on protein-coated wells. It is filed as cell-based. The note with it: free protein added to plates coated with TRAIL variant protein. How it is done:
The TRAIL and its variant protein are coated on a 96-well PVC plate overnight at 4° C. The coated 96-well plate was rinsed with 0.9% physiological saline, and then blocked for 1 h at 1640 culture medium containing 2% bovine serum albumin, and then rinsed again. After the human foreskin microvascular endothelial cells were digested, washed three times with phosphate buffer and re-suspended into the complete RPMI1640 medium, it was then added to the 96-well plate coated with TRAIL and its variant (40,000 cell per well). After the cells were incubated for 1.5 hours in an incubator containing 5% carbon dioxide, they were washed three times with physiological saline to remove the non-adherent cells. The adherent cells were fixed for 30 min with phosphate buffer solution (pH 7.3) containing 4% formalin and 2% sucrose, and then stained with 0.5% crystal violet. The fixed stained cells were rinsed several times, then dissolved with […] DMSO to test the absorbance values at 540 nm. All the tests should be carried out at least three times independently.

The subject of assay [2] is COLO-205 colon cancer cells. Nature of the assay: Cell apoptosis, Annexin V and PI double staining, COLO-205. Type of assay: cell-based. The settings on record: COLO-205 cells pre-incubated with RGD-L-TRAIL (C230G), then induced with RGD-L-TRAIL. The protocol: After the cells treated with TRAIL and its variant were digested with trypsin, they were removed from the cultivation plate, washed twice with phosphate buffer solution, and centrifuged for 5 min at 300 g centrifugal force. The supernatants were removed, and the cells were re-suspended in 100 ul of binding buffer solution. Then, Annexin V-FITC (BD Pharmgen) was added until a final concentration of 2 μg/ml was achieved, followed by incubation at room temperature. After 10 min, 400 ul of binding buffer was added, and the cells were transferred to a flow analysis tube. 1 μg of […] (Sigma Corporation) was added to each tube. The cells were analyzed with a flow cytometer within 30 min. At least three separate tests should be carried out for each cell line.

B1: RGD-L-TRAIL (C230G): TRAIL variant fused with αVβ3 and αVβ5 integrin ligands with a mutation at TRAIL's activity center causing loss of biological activity (protein)
chain: ACDCRGDCFCGGGGGVRERGPQRVAAHITGTRGRSNTLSSPNSKNEKALGRKINSWESSRSGHSFLSNLHLRNGELVIHEKGFYYIYSQTYFRFQEEIKENTKNDKQMVQYIYKYTSYPDPILLMKSARNSGWSKDAEYGLYSIYQGGIFELKENDRIFVSVTNEHLIDMDHEASFFGAFLVG
B1: the “reduction by free protein of endothelial cells adhered to microplates coated with RGD-L-TRAIL (competitive test)” value in assay [1] is “significantly reduce”. Moreover, the “effect of pre-incubation with the competitive inhibitor on RGD-L-TRAIL-induced apoptosis activity” value in assay [2] is listed as “declined significantly”.
